According to patent US20230357348A1 (AstraZeneca / MedImmune, published 2023):
Starred links: 1 amine or outer side, 2 acyl side, 3 side chain; linkers in the order of their positions; H or OH if unused. Non-standard residues stand in square brackets, D forms with d. Groups on a side chain read outwards from the residue. No end group written: not given here. *: point of attachment. C20 diacid = O=C(O)CCCCCCCCCCCCCCCCCCC(=O)*; C18 diacid = O=C(O)CCCCCCCCCCCCCCCCC(=O)*; γGlu = O=C(O)[C@H](CCC(=O)[*:2])N[*:1]; αMeF = C[C@](N)(Cc1ccccc1)C(=O)O; AEEA = NCCOCCOCC(=O)O; Aib = CC(C)(N)C(=O)O

Assays:
[1] = target: human GLP-1 receptor (hGLP-1R) (human, UniProt P43220 24-463); assay: cell-based or functional assay
[2] = target: human glucagon receptor (hGCGR) (human, UniProt P47871 26-477); assay: cell-based or functional assay
human glucagon receptor (hGCGR), sequence (P47871 26-477): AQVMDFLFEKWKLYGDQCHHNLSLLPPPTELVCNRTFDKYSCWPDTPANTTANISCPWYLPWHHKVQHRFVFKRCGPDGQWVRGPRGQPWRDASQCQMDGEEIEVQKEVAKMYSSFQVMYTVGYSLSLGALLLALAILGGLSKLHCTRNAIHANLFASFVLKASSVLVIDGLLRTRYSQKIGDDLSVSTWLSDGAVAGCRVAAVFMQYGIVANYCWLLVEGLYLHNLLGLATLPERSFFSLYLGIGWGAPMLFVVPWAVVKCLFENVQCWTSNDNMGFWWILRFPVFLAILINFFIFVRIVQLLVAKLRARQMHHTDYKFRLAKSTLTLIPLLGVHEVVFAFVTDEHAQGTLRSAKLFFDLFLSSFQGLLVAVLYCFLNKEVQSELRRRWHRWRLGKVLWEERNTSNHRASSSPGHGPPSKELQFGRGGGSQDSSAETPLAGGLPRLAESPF

B1: Peptide 486 (peptide)
peptide: H[Aib]QGTFTSDVSK[αMeF]LDLK([AEEA-AEEA-γGlu-C20 diacid])RAQDFVRWLL[Aib]E-OH
modifications: N-terminus assumed
SMILES: CC(C)C[C@H](NC(=O)[C@H](CC(=O)O)NC(=O)[C@H](CC(C)C)NC(=O)[C@](C)(Cc1ccccc1)NC(=O)[C@H](CCCCN)NC(=O)[C@H](CO)NC(=O)[C@@H](NC(=O)[C@H](CC(=O)O)NC(=O)[C@H](CO)NC(=O)[C@@H](NC(=O)[C@H](Cc1ccccc1)NC(=O)[C@@H](NC(=O)CNC(=O)[C@H](CCC(N)=O)NC(=O)C(C)(C)NC(=O)[C@@H](N)Cc1c[nH]cn1)[C@@H](C)O)[C@@H](C)O)C(C)C)C(=O)N[C@@H](CCCCNC(=O)COCCOCCNC(=O)COCCOCCNC(=O)CC[C@H](NC(=O)CCCCCCCCCCCCCCCCCCC(=O)O)C(=O)O)C(=O)N[C@@H](CCCNC(=N)N)C(=O)N[C@@H](C)C(=O)N[C@@H](CCC(N)=O)C(=O)N[C@@H](CC(=O)O)C(=O)N[C@@H](Cc1ccccc1)C(=O)N[C@H](C(=O)N[C@@H](CCCNC(=N)N)C(=O)N[C@@H](Cc1c[nH]c2ccccc12)C(=O)N[C@@H](CC(C)C)C(=O)N[C@@H](CC(C)C)C(=O)NC(C)(C)C(=O)N[C@@H](CCC(=O)O)C(=O)O)C(C)C
hGLP-1R EC50 (pM) [1]: 420 pM | hGluc-R EC50 (pM) [2]: 166 pM

B2: Peptide 485 (peptide)
peptide: H[Aib]QGTFTSDVSK[αMeF]LDTK([AEEA-AEEA-γGlu-C20 diacid])RAQDFVQWLL[Aib]E-NH2
modifications: N-terminus assumed
SMILES: CC(C)C[C@H](NC(=O)[C@H](Cc1c[nH]c2ccccc12)NC(=O)[C@H](CCC(N)=O)NC(=O)[C@@H](NC(=O)[C@H](Cc1ccccc1)NC(=O)[C@H](CC(=O)O)NC(=O)[C@H](CCC(N)=O)NC(=O)[C@H](C)NC(=O)[C@H](CCCNC(=N)N)NC(=O)[C@H](CCCCNC(=O)COCCOCCNC(=O)COCCOCCNC(=O)CC[C@H](NC(=O)CCCCCCCCCCCCCCCCCCC(=O)O)C(=O)O)NC(=O)[C@@H](NC(=O)[C@H](CC(=O)O)NC(=O)[C@H](CC(C)C)NC(=O)[C@](C)(Cc1ccccc1)NC(=O)[C@H](CCCCN)NC(=O)[C@H](CO)NC(=O)[C@@H](NC(=O)[C@H](CC(=O)O)NC(=O)[C@H](CO)NC(=O)[C@@H](NC(=O)[C@H](Cc1ccccc1)NC(=O)[C@@H](NC(=O)CNC(=O)[C@H](CCC(N)=O)NC(=O)C(C)(C)NC(=O)[C@@H](N)Cc1c[nH]cn1)[C@@H](C)O)[C@@H](C)O)C(C)C)[C@@H](C)O)C(C)C)C(=O)N[C@@H](CC(C)C)C(=O)NC(C)(C)C(=O)N[C@@H](CCC(=O)O)C(N)=O
hGLP-1R EC50 (pM) [1]: 219 pM | hGluc-R EC50 (pM) [2]: 90.4 pM

B3: Peptide 490 (peptide)
peptide: H[Aib]QGTFTSDVSK[αMeF]LDTK([AEEA-AEEA-γGlu-C20 diacid])RARDFVQWLL[Aib]TE-NH2
modifications: N-terminus assumed
SMILES: CC(C)C[C@H](NC(=O)[C@H](Cc1c[nH]c2ccccc12)NC(=O)[C@H](CCC(N)=O)NC(=O)[C@@H](NC(=O)[C@H](Cc1ccccc1)NC(=O)[C@H](CC(=O)O)NC(=O)[C@H](CCCNC(=N)N)NC(=O)[C@H](C)NC(=O)[C@H](CCCNC(=N)N)NC(=O)[C@H](CCCCNC(=O)COCCOCCNC(=O)COCCOCCNC(=O)CC[C@H](NC(=O)CCCCCCCCCCCCCCCCCCC(=O)O)C(=O)O)NC(=O)[C@@H](NC(=O)[C@H](CC(=O)O)NC(=O)[C@H](CC(C)C)NC(=O)[C@](C)(Cc1ccccc1)NC(=O)[C@H](CCCCN)NC(=O)[C@H](CO)NC(=O)[C@@H](NC(=O)[C@H](CC(=O)O)NC(=O)[C@H](CO)NC(=O)[C@@H](NC(=O)[C@H](Cc1ccccc1)NC(=O)[C@@H](NC(=O)CNC(=O)[C@H](CCC(N)=O)NC(=O)C(C)(C)NC(=O)[C@@H](N)Cc1c[nH]cn1)[C@@H](C)O)[C@@H](C)O)C(C)C)[C@@H](C)O)C(C)C)C(=O)N[C@@H](CC(C)C)C(=O)NC(C)(C)C(=O)N[C@H](C(=O)N[C@@H](CCC(=O)O)C(N)=O)[C@@H](C)O
hGLP-1R EC50 (pM) [1]: 69 pM | hGluc-R EC50 (pM) [2]: 396 pM

B4: Peptide 488 (peptide)
peptide: H[Aib]QGTFTSDVSK[αMeF]LDTK([AEEA-AEEA-γGlu-C20 diacid])RARDFVQWLL[Aib]TE-OH
modifications: N-terminus assumed
SMILES: CC(C)C[C@H](NC(=O)[C@H](Cc1c[nH]c2ccccc12)NC(=O)[C@H](CCC(N)=O)NC(=O)[C@@H](NC(=O)[C@H](Cc1ccccc1)NC(=O)[C@H](CC(=O)O)NC(=O)[C@H](CCCNC(=N)N)NC(=O)[C@H](C)NC(=O)[C@H](CCCNC(=N)N)NC(=O)[C@H](CCCCNC(=O)COCCOCCNC(=O)COCCOCCNC(=O)CC[C@H](NC(=O)CCCCCCCCCCCCCCCCCCC(=O)O)C(=O)O)NC(=O)[C@@H](NC(=O)[C@H](CC(=O)O)NC(=O)[C@H](CC(C)C)NC(=O)[C@](C)(Cc1ccccc1)NC(=O)[C@H](CCCCN)NC(=O)[C@H](CO)NC(=O)[C@@H](NC(=O)[C@H](CC(=O)O)NC(=O)[C@H](CO)NC(=O)[C@@H](NC(=O)[C@H](Cc1ccccc1)NC(=O)[C@@H](NC(=O)CNC(=O)[C@H](CCC(N)=O)NC(=O)C(C)(C)NC(=O)[C@@H](N)Cc1c[nH]cn1)[C@@H](C)O)[C@@H](C)O)C(C)C)[C@@H](C)O)C(C)C)C(=O)N[C@@H](CC(C)C)C(=O)NC(C)(C)C(=O)N[C@H](C(=O)N[C@@H](CCC(=O)O)C(=O)O)[C@@H](C)O
hGLP-1R EC50 (pM) [1]: 202 pM | hGluc-R EC50 (pM) [2]: 301 pM

B5: Peptide 484 (peptide)
peptide: H[Aib]QGTFTSDVSK[αMeF]LDTK([AEEA-AEEA-γGlu-C20 diacid])RAQDFVQWLL[Aib]E-OH
modifications: N-terminus assumed
SMILES: CC(C)C[C@H](NC(=O)[C@H](Cc1c[nH]c2ccccc12)NC(=O)[C@H](CCC(N)=O)NC(=O)[C@@H](NC(=O)[C@H](Cc1ccccc1)NC(=O)[C@H](CC(=O)O)NC(=O)[C@H](CCC(N)=O)NC(=O)[C@H](C)NC(=O)[C@H](CCCNC(=N)N)NC(=O)[C@H](CCCCNC(=O)COCCOCCNC(=O)COCCOCCNC(=O)CC[C@H](NC(=O)CCCCCCCCCCCCCCCCCCC(=O)O)C(=O)O)NC(=O)[C@@H](NC(=O)[C@H](CC(=O)O)NC(=O)[C@H](CC(C)C)NC(=O)[C@](C)(Cc1ccccc1)NC(=O)[C@H](CCCCN)NC(=O)[C@H](CO)NC(=O)[C@@H](NC(=O)[C@H](CC(=O)O)NC(=O)[C@H](CO)NC(=O)[C@@H](NC(=O)[C@H](Cc1ccccc1)NC(=O)[C@@H](NC(=O)CNC(=O)[C@H](CCC(N)=O)NC(=O)C(C)(C)NC(=O)[C@@H](N)Cc1c[nH]cn1)[C@@H](C)O)[C@@H](C)O)C(C)C)[C@@H](C)O)C(C)C)C(=O)N[C@@H](CC(C)C)C(=O)NC(C)(C)C(=O)N[C@@H](CCC(=O)O)C(=O)O
hGLP-1R EC50 (pM) [1]: 339 pM | hGluc-R EC50 (pM) [2]: 169 pM

B6: Peptide 489 (peptide)
peptide: H[Aib]QGTFTSDVSK[αMeF]LDTK([AEEA-AEEA-γGlu-C18 diacid])RARDFVQWLL[Aib]TE-NH2
modifications: N-terminus assumed
SMILES: CC(C)C[C@H](NC(=O)[C@H](Cc1c[nH]c2ccccc12)NC(=O)[C@H](CCC(N)=O)NC(=O)[C@@H](NC(=O)[C@H](Cc1ccccc1)NC(=O)[C@H](CC(=O)O)NC(=O)[C@H](CCCNC(=N)N)NC(=O)[C@H](C)NC(=O)[C@H](CCCNC(=N)N)NC(=O)[C@H](CCCCNC(=O)COCCOCCNC(=O)COCCOCCNC(=O)CC[C@H](NC(=O)CCCCCCCCCCCCCCCCC(=O)O)C(=O)O)NC(=O)[C@@H](NC(=O)[C@H](CC(=O)O)NC(=O)[C@H](CC(C)C)NC(=O)[C@](C)(Cc1ccccc1)NC(=O)[C@H](CCCCN)NC(=O)[C@H](CO)NC(=O)[C@@H](NC(=O)[C@H](CC(=O)O)NC(=O)[C@H](CO)NC(=O)[C@@H](NC(=O)[C@H](Cc1ccccc1)NC(=O)[C@@H](NC(=O)CNC(=O)[C@H](CCC(N)=O)NC(=O)C(C)(C)NC(=O)[C@@H](N)Cc1c[nH]cn1)[C@@H](C)O)[C@@H](C)O)C(C)C)[C@@H](C)O)C(C)C)C(=O)N[C@@H](CC(C)C)C(=O)NC(C)(C)C(=O)N[C@H](C(=O)N[C@@H](CCC(=O)O)C(N)=O)[C@@H](C)O
hGLP-1R EC50 (pM) [1]: 22.8 pM | hGluc-R EC50 (pM) [2]: 168 pM

B7: Peptide 487 (peptide)
peptide: H[Aib]QGTFTSDVSK[αMeF]LDTK([AEEA-AEEA-γGlu-C18 diacid])RARDFVQWLL[Aib]TE-OH
modifications: N-terminus assumed
SMILES: CC(C)C[C@H](NC(=O)[C@H](Cc1c[nH]c2ccccc12)NC(=O)[C@H](CCC(N)=O)NC(=O)[C@@H](NC(=O)[C@H](Cc1ccccc1)NC(=O)[C@H](CC(=O)O)NC(=O)[C@H](CCCNC(=N)N)NC(=O)[C@H](C)NC(=O)[C@H](CCCNC(=N)N)NC(=O)[C@H](CCCCNC(=O)COCCOCCNC(=O)COCCOCCNC(=O)CC[C@H](NC(=O)CCCCCCCCCCCCCCCCC(=O)O)C(=O)O)NC(=O)[C@@H](NC(=O)[C@H](CC(=O)O)NC(=O)[C@H](CC(C)C)NC(=O)[C@](C)(Cc1ccccc1)NC(=O)[C@H](CCCCN)NC(=O)[C@H](CO)NC(=O)[C@@H](NC(=O)[C@H](CC(=O)O)NC(=O)[C@H](CO)NC(=O)[C@@H](NC(=O)[C@H](Cc1ccccc1)NC(=O)[C@@H](NC(=O)CNC(=O)[C@H](CCC(N)=O)NC(=O)C(C)(C)NC(=O)[C@@H](N)Cc1c[nH]cn1)[C@@H](C)O)[C@@H](C)O)C(C)C)[C@@H](C)O)C(C)C)C(=O)N[C@@H](CC(C)C)C(=O)NC(C)(C)C(=O)N[C@H](C(=O)N[C@@H](CCC(=O)O)C(=O)O)[C@@H](C)O
hGLP-1R EC50 (pM) [1]: 65.5 pM | hGluc-R EC50 (pM) [2]: 164 pM
